One experiment addresses T1, MUC2 glycoprotein (human, UniProt Q02817 21-5289, limits assumed, O-glycosylated mucin).
T1 construct: Present in situ in fixed, paraffin-embedded tissue sections; also called major mucin of the intestine
The experiment is described as follows: histological labelling of human colonic adenoma sections with biotinylated peptide, compared with anti-MUC2 antibody labelling. How it is done:
Sections of healthy gastric and colonic mucosae and of human colorectal adenoma (5 μm thick) were fixed for 24 h with 4% paraformaldehyde and embedded in paraffin. For the labeling, the sections were first of all deparaffinized in toluene and rehydrateted in 95% alcohol. After rinsing in water, the slides are brought to boiling for 10 minutes in a citrate buffer (50 mM, pH 4). Once the temperature of the buffer has returned to 25-30° C., the slides are then rinsed with PBS and then successively incubated for 15 minutes in a 0.15% hydrogen peroxide (H₂O₂) solution and a kit for blocking the endogenous biotin for 1 h. The sections are then blocked using a milk-enriched buffer for 1 h at ambient temperature, and are then incubated at 4° C. for 18 h with the peptides at various concentrations (20 μM, 10 μM, 1 μM, 0.2 μM, 0.04 μM) or the antibodies (MUC5AC: PM8 at a 1/100 dilution and MUC2: Lum2-3 at a 1/100 dilution) diluted in PBS. The biotinylated peptides bound to the target are visualized using goat anti-biotin antibodies incubated for one hour at ambient temperature and then diluted in PBS at 1 μg/ml. A second incubation for one hour at ambient temperature is carried out in the presence of peroxidase-labeled anti-goat antibodies at 0.2 μg/ml diluted in PBS supplemented with 0.1% of Tween-20. […]

In experiment [1] the target is T2, mouse MUC5AC glycoprotein purified from mouse stomach (mouse).
T2 construct: Native glycoprotein purified from tissue; Also used here as the target for the in vivo mouse stomach signal (MUC5AC in situ); also called murine (mouse) gastric MUC5AC
The experiment is described as follows: ELISA; MUC5AC purified from mouse stomach immobilized, biotinylated peptide; apparent Kd. On the procedure:
(§1) The interaction between the peptide and MUC5AC is evaluated by means of an ELISA assay. The mucin MUC5AC (purified from pieces of human tumor on the basis of mucin extraction and purification protocols described in literature) is immobilized on a plate at the concentration of 12.5 μg/ml overnight at 4° C. The nonspecific sites are then saturated in a buffer enriched with milk, for 2 hours at 4° C. After several rinses, the peptide […] coupled to biotin is incubated at increasing concentrations (10⁻³M and 10⁻⁶M) for 2 hours at 37° C. The biotinylated peptides bound to MUC5AC are visualized using goat anti-biotin antibodies incubated for one hour at ambient temperature and then diluted in PBS at 1 μg/ml. After removal of the unbound antibodies, a second incubation for one hour at ambient temperature is carried out in the presence of peroxidase-labeled anti-goat antibodies at 0.2 μg/ml, diluted in PBS supplemented with 0.1% of Tween-20. The peroxidase coloration reaction is carried out in the presence of H₂O₂-enriched ABTS. The measurement of the OD at 405 nm makes it possible to calculate the K*d MUC5AC value.
(§2) The interaction between the peptide and MUC5AC is also evaluated by means of the previously described ELISA assay on the mucin MUC5AC purified beforehand from mouse and rat stomach.

Experiment [2] addresses T3, human MUC5AC mucin purified from pieces of human tumor (human, UniProt P98088 28-5654, limits assumed, O-glycosylated mucin).
T3 construct: Native glycoprotein purified from tissue and immobilized on an ELISA plate at 12.5 ug/ml; Also used here as the target for labelling of human tissue sections (MUC5AC in situ); also called human colonic MUC5AC; purified MUC5AC
The experiment is described as follows: ELISA; purified human MUC5AC immobilized, biotinylated peptide at increasing concentrations, OD 405 nm; apparent Kd. On the procedure: as §1
For orientation: An ELISA detects its analyte on a solid surface through an enzyme-linked reagent.

Experiment [3] addresses T4, native MUC5AC secreted by HT29-5M21 human colonic adenocarcinoma cells (human, UniProt P98088 28-5654, O-glycosylated mucin).
T4 construct: whole, on cells; A secreted mucin on the cell layer, not a membrane protein; also called MUC5AC cells; MUC5AC directly after secretion on secretory human adenocarcinoma cells
The experiment is described as follows: cell ELISA on HT29 5M21 cells secreting MUC5AC, biotinylated peptide, OD 405 nm; apparent Kd. How it is done: The affinity of the peptide for MUC5AC is calculated from a functional cell assay which consists in measuring the binding of the peptide on a cell model secreting MUC5AC. After 21 days of culture for HT29-5M21 cells and 7 days for HCT116 cells, the cells are rinsed with PBS at 4° C., and then fixed with 1% glutaraldehyde diluted in PBS. The cells are then rinsed again 3 times with PBS at 4° C. and incubated for 2H at ambient temperature with a milk-enriched buffer and for 2H at 37° C. in a concentration range of between 10⁻³M and 10⁻⁶M of biotinylated peptides. The biotinylated peptides bound to the target are visualized using goat anti-biotin antibodies incubated for one hour at ambient temperature (diluted in PBS to 1 μg/ml). A second incubation for one hour at ambient temperature is carried out in the presence of peroxidase-labeled anti-goat antibodies at 0.2 μg/ml, diluted in PBS supplemented with 0.1% of Tween-20. The peroxidase coloration reaction is carried out in the presence of ABTS and the OD measurement is carried out at 405 nm. The cell assay has the advantage of showing affinity data, although its sensitivity can still be improved. The secretion of MUC5AC was indeed verified in the study. The results on human tissues (affinity curve for human MUC5AC also obtained) give very positive results. […]

For experiment [4], the target named is T5, rat MUC5AC glycoprotein purified from rat stomach (rat).
T5 construct: Native glycoprotein purified from tissue; also called murine (rat) gastric MUC5AC
The experiment is described as follows: ELISA; MUC5AC purified from rat stomach immobilized, biotinylated peptide; apparent Kd. How it is done: as §1, §2

Our source for the binding result and Kd values is patent publication US20140127139A1 (GUERBET, published 2014).

No end group written: not given here.

B1: peptide CPSIYPLLC (SEQ ID No. 2) coupled to biotin (peptide)
peptide: CPSIYPLLC
modifications: also: biotin coupled, site not given here, cyclic, closure type not given here
notes: The chemistry of the biotin coupling is not described; also called Cyclic C60
As for B1, in the experiment with MUC2 glycoprotein, the binding result was “no binding”. For the same molecule, the Kd in experiment [1] came to 549 µM; in experiment [2], 85 µM; in experiment [3], 48 µM; in experiment [4], 659 µM.
